From patent US20130052176, “APTAMER FOR NGF AND USE THEREOF” (SHIONOGI & CO., LTD, published 2013)

How the values were obtained:
Conditions in all cases: tags: amine-coupled to CM5 chip in SPR; soluble in cell assays; chain copies: 2
[1] = target: T1, NGF (nerve growth factor) (human, UniProt P01138 P01138:122-241); experiment: cell_activity; neurite outgrowth, NGF 1.1 nM; SPR binding; TF-1 IC50 3.2 nM
[2] = target: T1, NGF (nerve growth factor); experiment: as above; remark: listed apart in the source
Description: (§1) The neurite outgrowth inhibitory activity of the aptamer obtained in Example 1 was evaluated by using Neuroscreen-1 cell, which is a subclone of PC-12 cells.
(§2) The cells (2500 cells per well) were cultured for one day in an RPMI-1640 medium containing 2.5% horse serum and 1.25% fetal bovine serum in a 96 well flat-bottom plate coated with collagen type IV. […] Two days later, the cytoplasm and nuclei were stained using Cellomics Neurite Outgrowth Kit (manufactured by Thermo Scientific), and neurite length per cell was measured by Cellomics ArrayScan VTI (manufactured by Thermo Scientific). With the neurite length per cell obtained by the addition of NGF alone as inhibitory activity 0%, and that of the cell obtained by NGF free culture for 2 days as inhibitory activity 100%, the inhibitory activity of the aptamer was calculated from the neurite length per cell obtained by culturing with the addition of NGF and the aptamer in mixture. When the inhibitory activity was 0% or below, ‘0%’ is indicated.

[3] = target: T1, NGF (nerve growth factor); experiment: cell_activity; neurite outgrowth, NGF 1.1 nM; SPR binding; TF-1 IC50 11.1 nM
[4] = target: T1, NGF (nerve growth factor); experiment: cell_activity; neurite outgrowth, NGF 0.38 nM; SPR binding; TF-1 IC50 1.0 nM
Description: as §1, §2

[5] = target: T1, NGF (nerve growth factor); experiment: cell_activity; neurite outgrowth, NGF 0.38 nM; SPR binding; TF-1 IC50 0.154 nM
Description: as §1, §2

[6] = target: T1, NGF (nerve growth factor); experiment: cell_activity; neurite outgrowth, NGF 1.1 nM; SPR binding; TF-1 IC50 1.4 nM
Description: as §1, §2

[7] = target: T1, NGF (nerve growth factor); experiment: cell_activity; neurite outgrowth, NGF 0.38 nM; SPR binding; TF-1 IC50 0.074 nM
Description: as §1, §2

[8] = target: T1, NGF (nerve growth factor); experiment: cell_activity; neurite outgrowth, NGF 0.38 nM; not tested by SPR; TF-1 IC50 0.520 nM
Description: as §1, §2

[9] = target: T1, NGF (nerve growth factor); experiment: cell_activity; neurite outgrowth, NGF 0.38 nM; SPR binding; TF-1 IC50 0.073 nM
Description: as §1, §2

[10] = target: T1, NGF (nerve growth factor); experiment: cell_activity; neurite outgrowth, NGF 0.38 nM; SPR binding; TF-1 IC50 0.100 nM
Description: as §1, §2

[11] = target: T1, NGF (nerve growth factor); experiment: cell_activity; neurite outgrowth, NGF 0.38 nM; SPR binding; TF-1 IC50 <0.1 nM
Description: as §1, §2

[12] = target: T1, NGF (nerve growth factor); experiment: cell_activity; neurite outgrowth, NGF 0.38 nM; SPR binding; TF-1 IC50 0.105 nM
Description: as §1, §2

[13] = target: T1, NGF (nerve growth factor); experiment: cell_activity; neurite outgrowth, NGF 0.38 nM; SPR binding; TF-1 IC50 0.186 nM
Description: as §1, §2

[14] = target: T1, NGF (nerve growth factor); experiment: cell_activity; neurite outgrowth, NGF 0.38 nM; SPR binding; TF-1 IC50 0.211 nM
Description: as §1, §2

[15] = target: T1, NGF (nerve growth factor); experiment: cell_activity; neurite outgrowth, NGF 0.38 nM; SPR binding; TF-1 IC50 0.061 nM
Description: as §1, §2

T1 sequence (P01138 122-241, one chain of several): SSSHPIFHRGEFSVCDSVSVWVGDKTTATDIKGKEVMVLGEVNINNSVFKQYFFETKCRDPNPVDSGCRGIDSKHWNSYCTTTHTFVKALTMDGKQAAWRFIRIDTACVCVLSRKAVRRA

B1: aptamer ID 19 (ssRNA)
RNA: GGGAGAACUUCGCCAGAAGUUUGAAAGAAACCCAAAUAAAGAUGUGCGCAUC
modifications: 2'-F at all pyrimidines
B1 gave an IC50 [1] of 1.3 nM.

Binder GGGAGACUCGCAGAGUUGAAAGAAACCCAAAUAAAGUGUGCGCACA (ssRNA, 2'-F at all pyrimidines) [aptamer ID 27] has an IC50 [2] of less than 1 nM.

B2: aptamer ID 10 (ssRNA)
RNA: GGGAGAACUUCGCCAGAAGUUUGAAAGAAACCCAAAUUAAAAAGUAUGUGCGCAUACA
modifications: 2'-F at all pyrimidines
In the case of B2, the IC50 [3] is reported as less than 3 nM.

In the case of GGGAGACUCGCCAGAGUUGAAAGAAACCCAAAUAGUGUGCGCAC (ssRNA, 2'-F at all pyrimidines) [aptamer ID 29], the IC50 [4] is reported as less than 0.3 nM.

With GGGAGACUCGCCAGAGUUGAAAGAAACCCAAAUAGUGUGCGCAC (ssRNA, 2'-F pyrimidines; 2'-OMe purines except 2'-OH at 3,19,20; 5' idT and 3' idT) [aptamer ID 29(1)] the IC50 [5] was 0.058 nM.

GGGAGACUCGCAGAGUUGAAAGAAACCCAAAUAAGUGUGCGCAC (ssRNA, 2'-F at all pyrimidines) [aptamer ID 28] was tested, and the IC50 [6] was less than 1 nM.

B3: aptamer ID 26(13) (ssRNA)
RNA: GGGAGACUCGCCAGAGUUGAAAGAAACCCAAAUAAGUGUGCGCAC
modifications: 2'-F pyrimidines; 2'-OMe purines except 2'-OH at 3,5,19,20,22,24,26; 5' idT and 3' idT
Binder B3 has an IC50 [7] of 0.039 nM.

B4: aptamer ID 26(66) (ssRNA)
RNA: B3 RNA
modifications: 2'-F pyrimidines; 2'-OMe purines except 2'-OH at 3,19,20,26; 5' PEG40GS2 (ssH linker); 3' idT
Work on B4 yielded an IC50 [8] of 0.252 nM.

B5: aptamer ID 26(42) (mixed)
RNA: B3 RNA
modifications: 2'-F pyrimidines except dC at 9,29 and dT at 33,37; 2'-OMe purines except 2'-OH at 3,19,20,26; 5' idT and 3' idT
In the case of B5, the IC50 [9] is reported as 0.083 nM.

B6: aptamer ID 26(41) (mixed)
RNA: B3 RNA
modifications: 2'-F pyrimidines except dC at 29 and dT at 37; 2'-OMe purines except 2'-OH at 3,19,20,26; 5' idT and 3' idT
For B6, the IC50 [10] was 0.104 nM.

B7: aptamer ID 26(38) (ssRNA)
RNA: B3 RNA
modifications: 2'-F pyrimidines except 2'-OMe at 7; 2'-OMe purines except 2'-OH at 3,19,20,26; PS between 20 and 21; 5' idT and 3' idT
Work on B7 yielded an IC50 [11] of 0.145 nM.

For GGGAGACUCGCCAGAGUUGAAAGAAACCCAAAUAAGUGUGCGCAC (ssRNA, 2'-F pyrimidines; 2'-OMe purines except 2'-OH at 3,19,20; 5' idT and 3' idT) [aptamer ID 26(18)], the IC50 [12] was 0.084 nM.

B8: aptamer ID 26(22) (mixed)
RNA: B3 RNA
modifications: 2'-F pyrimidines except dT at 8; 2'-OMe purines except 2'-OH at 3,19,20,26; 5' idT and 3' idT
With B8 the IC50 [13] was 0.293 nM.

B9: aptamer ID 26(31) (ssRNA)
RNA: B3 RNA
modifications: 2'-F pyrimidines except 2'-OMe at 7; 2'-OMe purines except 2'-OH at 3,19,20,26; 5' idT and 3' idT
In the case of B9, the IC50 [14] is reported as 0.3 nM.

B10: aptamer ID 26(44) (ssRNA)
RNA: B3 RNA
modifications: 2'-F pyrimidines except 2'-OMe at 7,11,12,17,33,45; 2'-OMe purines except 2'-OH at 3,19,20,26; 5' idT and 3' idT
In the case of B10, the IC50 [15] is reported as 0.074 nM.
